As usually defined, the Kd is the constant that tells how readily two partners part at equilibrium. Low readings indicate a tighter complex, high ones a looser complex. As a reminder, the IC50 is the point on the concentration scale where inhibition reaches its midpoint. Read a high IC50 as a need for much substance.

Positions count from the first letter of the chain named. *: point of attachment. Cbz = O=C(OCc1ccccc1)*; Boc = CC(C)(C)OC(=O)*

In assay [1] the target is T1, FGF14^WT (aa 64-252) (human) (UniProt Q92915).
T1 sequence: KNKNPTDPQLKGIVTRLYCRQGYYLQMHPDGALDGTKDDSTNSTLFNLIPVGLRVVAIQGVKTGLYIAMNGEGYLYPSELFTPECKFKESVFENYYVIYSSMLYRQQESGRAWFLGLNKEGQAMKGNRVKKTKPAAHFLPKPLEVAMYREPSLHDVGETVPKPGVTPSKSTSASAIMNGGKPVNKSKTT
As to the kind of experiment: SPR. Background: Surface plasmon resonance follows binding to a sensor surface in real time, without labels.

Assay [2] addresses T2, FGF14^V160A (aa 64-252) (human) (UniProt Q92915).
T2 sequence: T1 sequence with V97A
As to the kind of experiment: SPR.

In another assay the target is CLuc-FGF14 (human) (human, UniProt Q92915 1-247). As to the kind of experiment: split reporter.

B1: ZL181 (Cbz-FLPK(Boc)-CONH2) (peptide)
peptide: Cbz-FLPK(Boc)-NH2
SMILES: CC(C)C[C@H](NC(=O)[C@H](Cc1ccccc1)NC(=O)OCc1ccccc1)C(=O)N1CCC[C@H]1C(=O)N[C@@H](CCCCNC(=O)OC(C)(C)C)C(N)=O
Take B1: the Kd in assay [1] was 89.6 µM; in assay [2] it was 182 µM. The IC50 with CLuc-FGF14 (human) was found to be 63 µM.

These data come from publication PMC6033619 (ACS chemical neuroscience, 2018).
